According to article PMC3084279, “Critical Factors Governing the Difference in Antizyme-Binding Affinities between Human Ornithine Decarboxylase and Antizyme Inhibitor” (PLoS ONE, 2011):

Key:
[1] = target: human ornithine decarboxylase M140K mutant (human) (UniProt P11926)
[2] = target: human ornithine decarboxylase N125K/M140K double mutant (human) (UniProt P11926)
[3] = target: human ornithine decarboxylase, wild type (human) (UniProt P11926)
[4] = target: human ornithine decarboxylase F133C mutant (human) (UniProt P11926)
[5] = target: human ornithine decarboxylase S135N mutant (human) (UniProt P11926)
[6] = target: human ornithine decarboxylase N125K mutant (human) (UniProt P11926)
[7] = target: human ornithine decarboxylase N126V mutant (human) (UniProt P11926)
[8] = target: human antizyme inhibitor, wild type (human) (UniProt O14977); experiment: AUC; sedimentation velocity, 42,000 rpm; ODC or AZI fixed at 0.3 mg/mL with AZ at 0.015, 0.03, 0.06 or 0.09 mg/mL; data globally fitted with SEDPHAT to the A+B<->AB hetero-association model
[9] = target: human antizyme inhibitor K140M mutant (human) (UniProt O14977); experiment: as above
[10] = target: human ornithine decarboxylase M140K mutant (human) (UniProt P11926); experiment: as above
[11] = target: human ornithine decarboxylase N125K/M140K double mutant (human) (UniProt P11926); experiment: as above
[12] = target: human antizyme inhibitor K125N mutant (human) (UniProt O14977); experiment: as above
[13] = target: human ornithine decarboxylase, wild type (human) (UniProt P11926); experiment: as above
[14] = target: human antizyme inhibitor K125N/K140M double mutant (human) (UniProt O14977); experiment: as above
[15] = target: human ornithine decarboxylase N125K mutant (human) (UniProt P11926); experiment: as above
[16] = target: human ornithine decarboxylase N125K/M140K double mutant (human) (UniProt P11926); remark: listed apart in the source
human antizyme (human) = human antizyme (human) (UniProt P54368)
[17] = target: the molecule itself; experiment: AUC; sedimentation velocity, 42,000 rpm; continuous size distribution (SEDFIT) of ODC or AZI without AZ

Chain of human antizyme inhibitor K140M mutant (human) (O14977 whole entry K140M): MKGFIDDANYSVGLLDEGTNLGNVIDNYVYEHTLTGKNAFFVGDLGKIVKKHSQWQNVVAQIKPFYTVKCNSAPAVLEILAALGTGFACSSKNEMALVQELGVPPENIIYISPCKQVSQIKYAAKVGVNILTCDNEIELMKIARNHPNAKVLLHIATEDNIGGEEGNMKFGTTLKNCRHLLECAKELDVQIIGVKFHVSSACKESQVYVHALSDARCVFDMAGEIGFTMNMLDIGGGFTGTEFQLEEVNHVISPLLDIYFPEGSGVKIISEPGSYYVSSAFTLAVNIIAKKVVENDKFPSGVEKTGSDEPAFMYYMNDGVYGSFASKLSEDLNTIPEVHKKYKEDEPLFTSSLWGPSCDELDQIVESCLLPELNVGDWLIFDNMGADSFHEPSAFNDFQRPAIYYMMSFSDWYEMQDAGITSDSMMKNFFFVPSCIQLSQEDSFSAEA
Chain of human antizyme inhibitor K125N/K140M double mutant (human) (O14977 whole entry K125N/K140M): as the sequence (O14977 whole entry K140M) above, with K125N counted along it
Chain of human antizyme inhibitor, wild type (human) (O14977 whole entry): as the sequence (O14977 whole entry K140M) above, with M140K counted along it
Chain of human antizyme inhibitor K125N mutant (human) (O14977 whole entry K125N): as the sequence (O14977 whole entry K140M) above, with K125N, M140K counted along it

With “human antizyme (from UniProt P54368 1-228) (natural protein)” the IC50,AZ: concentration of AZ required for 50% inhibition of ODC enzyme activity (ODC 20 µg/mL) [1] was 130 nM, the IC50,AZ: concentration of AZ required for 50% inhibition of ODC enzyme activity (ODC 20 µg/mL) [2] was 80 nM and the IC50,AZ: concentration of AZ required for 50% inhibition of ODC enzyme activity (ODC 20 µg/mL) [3] was 250 nM. The IC50,AZ: concentration of AZ required for 50% inhibition of ODC enzyme activity (ODC 20 µg/mL) [4] was 450 nM, the IC50,AZ: concentration of AZ required for 50% inhibition of ODC enzyme activity (ODC 20 µg/mL) [5] was 490 nM and the IC50,AZ: concentration of AZ required for 50% inhibition of ODC enzyme activity (ODC 20 µg/mL) [6] was 100 nM. It also gave an IC50,AZ: concentration of AZ required for 50% inhibition of ODC enzyme activity (ODC 20 µg/mL) [7] of 440 nM, a Kd [8] of 20 nM and a Kd [9] of 110 nM. The Kd [10] was 140 nM, the Kd [11] was 20 nM and the Kd [12] was 160 nM. For the same molecule, the Kd [13] was 210 nM, the Kd [14] was 180 nM and the Kd [15] was 100 nM. It also gave a residual enzyme activity of AZ-inhibited ODC N125K/M140K on rescue by high concentrations of AZI (AZ:ODC monomer ratio 4.0) [16] of 20%.

With “human antizyme inhibitor, wild type (from UniProt O14977 1-448) (natural protein)” the residual enzyme activity of AZ-inhibited ODC WT (AZ:ODC monomer ratio 4.0) with increasing AZI concentrations (human antizyme (human)) was > 90%.

B1: human ornithine decarboxylase, wild type (enzyme, UniProt P11926 1-461, looked up)
chain: MNNFGNEEFDCHFLDEGFTAKDILDQKINEVSSSDDKDAFYVADLGDILKKHLRWLKALPRVTPFYAVKCNDSKAIVKTLAATGTGFDCASKTEIQLVQSLGVPPERIIYANPCKQVSQIKYAANNGVQMMTFDSEVELMKVARAHPKAKLVLRIATDDSKAVCRLSVKFGATLRTSRLLLERAKELNIDVVGVSFHVGSGCTDPETFVQAISDARCVFDMGAEVGFSMYLLDIGGGFPGSEDVKLKFEEITGVINPALDKYFPSDSGVRIIAEPGRYYVASAFTLAVNIIAKKIVLKEQTGSDDEDESSEQTFMYYVNDGVYGSFNCILYDHAHVKPLLQKRPKPDEKYYSSSIWGPTCDGLDRIVERCDLPEMHVGDWMLFENMGAYTVAAASTFNGFQRPTIYYVMSGPAWQLMQQFQNPDFPPEVEEQDASTLPVSCAWESGMKRHRAACASASINV
notes: Ornithine decarboxylase (EC 4.1.1.17), human; Homodimer without AZ (S about 6); dissociates to form a heterodimer with AZ; Gene sub-cloned into pQE30; also called ODC; source: E. coli JM109, purified (Ni-NTA Sepharose)
In the case of B1, the “stoichiometry N” value [17] is reported as 2.
